The values that follow come from PMC6508887.

By Km is commonly meant the substrate concentration at which the rate is half of its maximum. For orientation: kcat means the number of substrate molecules converted per active site and unit of time at saturation. The kcat/Km is the turnover number divided by the Michaelis constant.

In data set [1] the target is 2-oxoglutarate:ferredoxin oxidoreductase from Magnetococcus marinus MC-1, αβ heterodimer (catalytic unit) (Magnetococcus marinus MC-1).
Substrate in data set [2]: CC(C)(COP(=O)(O)OP(=O)(O)OC[C@H]1O[C@@H](n2cnc3c(N)ncnc32)[C@H](O)[C@@H]1OP(=O)(O)O)[C@@H](O)C(=O)NCCC(=O)NCCS
Kind of data set: steady-state 2-oxoglutarate oxidation assay. It counts as biochemical, Magnetococcus marinus. Conditions: pH 8.5, 2-oxoglutarate oxidation direction.

Substrate in data set [3]: O=C(O)CCC(=O)C(=O)O
Kind of data set: steady-state 2-oxoglutarate oxidation assay. It counts as biochemical, Magnetococcus marinus. Particulars: pH 8.5, apparent KM.

“Magnetococcus marinus MC-1 ferredoxin 1 (natural protein)”: the KM of WT MmOGOR for MmFd1, CO2 reduction, pH 7.0 in data set [1] worked out at 1.3 μM.

B1: MmOGOR (Magnetococcus marinus MC-1) (protein)
chain 1: MEKKDLIIRVAGEGGEGIISSGDFIAAACARAGLEVYTFKTFPAEIKGGYAMYQVRASSEKLYCQGDTFDVFCAFNGEAYEQNKDKIKPGTAFVYDYPGGDFEPDEIPEGVFAYPIPMSQTAKEMKSYRSKNMVALGALSELFNISENTLKEVLSDKFGKKGEEVLAFNLEAFDKGKALAKALTKADPFRVADPQEPKDVIIMAGNDAVGLGGILGGLEFFSAYPITPATEVAKYVATHLPKCGGDLVQAEDEIASIAQVLGASYAGKKSMTATSGPGLALMSEMLGMAHMSETPCLVVDVQRGGPSTGLPTKHEQSDLFLAIHGGHGDSPRIVLSVEDVKDCISMTVDGLNLAEKYQAPVIVLSDGSLAFSTQTIPRPKPEDFTIINRKTWDGQGTYKRYELTEDNISPMAAPGTPNAKHIATGLEHGETGAPNYSPANHELMHRKRFNKQNSVLDFYKNMEVEGVEGEADVGIITWGSTIGVVREAMQRLTAEGLKVKAMYPKLLWPMPVADYDAFGATCKKVIVPEVNFQGQLSHFIRAETSIKPIPYTICGGLPFTPEMIVNRVKEEIQ
chain 2: MTVEAFHKMENMKPKDYKSEVPTTWCPGCGHFGILNGVYRAMAELGIDSTKFAAISGIGCSSRMPYFVDSYKMHTLHGRAGAVATGTQVARPDLCVVVAGGDGDGFSIGGGHMPHMARKNVNMTYVLMDNGIYGLTKGQYSPTSRPEMTAYTTPYGGPENPMNPLLYMLTYGATYVAQAFAGKPKDCAELIKGAMEHEGFAYVNIFSQCPTFNKIDTVDFYRDLVEPIPEDHDTSDLGAAMELARRPGGKAPTGLLYKTSAPTLDQNLAKIRERLGGHVGYDKNKIIALAKP
In the case of B1, in data set [2], the Km worked out at 6.8 µM, the kcat turned out to be 24.7 s⁻¹ and the kcat/Km amounted to 3.6e+06 M⁻¹ s⁻¹. For the same molecule, in data set [3], the Km worked out at 4400 µM, the kcat was determined as 30.3 s⁻¹ and the kcat/Km was determined as 6900 M⁻¹ s⁻¹.
